Biological target: human MN protein, entire extra-cellular domain with a C-terminal histag, expressed in HKB-11 cells (human) (UniProt Q16790)
Assay: method not restated (Biacore by context)

Kd: 5.3 nM
Substance: MN antibody G250, a humanized IgG1 antibody (Wilex)

Reference: patent publication US20100129315A1
